This series is described as follows: soluble on expression in E. coli; label from the status in PepcDB or PDB records.
With “MGSDKIHHHHHHMKLHYKKEHISCTNYKSESYEGFGIGTLTSGSNFNSQTLSVKTNFLIFILEGEVEIIPKEGKIKRVIAQEFFFISALSTYEIQVRVPGRYIYMSFLYNDIKLCEKHMLESYLKEVREASEEVGILSVRHPLNLFLELIDAYLRAGVNCKHLHSIKEKELFIILRTSYSKQEIVNLFHEIIGTNMSFKAAVLLHVDRVNNREELAQAMGMSITDLARKFKVEFGESVYSWLLKQKNKKIIYRLAQPGASVKEIVYEFGFSSAASFNKYCKKNFGNSPRELVRQLKDKHIDNQNLKI”, the “soluble on expression in E. coli” value is “not soluble”.

Consider “MGHHHHHHSHMPKNQEDSEEKGEKDEQTAKFLHKLAENGKDRGLPDCVVAQYEKNAWEATNSDEKYKSCEKCGMPPPPPIDGAKNSVVEEVCKNCETINEKPIGIESQILEKRRNEEILKRKEERKSLKRSAEESVTNSAPEKIQKKVHVKIMPRKCAPQILRRSLVPPPILTPKSAKKKLKLAENKEPDFLKALLNVTGNPV”, for which the “soluble on expression in E. coli” value is “not soluble”.

Take “MGSDKIHHHHHHMNIRIGCSGWYYPHWAGKFYPSDLNKSEWFRYYAQKFDTVEINSTFYSFPNAARVRSWVKGSPENFVFSVKVNRTITHVKRLKDCDEEIGLFYEIIGSLGKMLGCVLFQFPPSFKYSHDNLIMIEKALDQRFCNVVEFRNISWFSEDARCDLEKSDLHVVAVSSERIPLWIKEDSVVYVRLHGNVNGYATDYNEEYLTDLAQRIIDVKPQSLYVYFNNDYSGYAPKNAIMLKSIINNLIL”: the “soluble on expression in E. coli” value was “not soluble”.

“MMEEYVVIGKVLDTFGLEGELKVRPYAPPEVFENLEKVYLKRKGGDWVPFEVEWVDFIDDKVIIKFKGYDSIDEVEQFKGAKLFLPKEELPELGEEEYYAYELVGMEVETDKGKKLGKVERVQDMGPYDALVLDKENLLVPFVSDIVLKVDKENKKIIVKEELLPVLEHHHHHH”: the “soluble on expression in E. coli” value is “soluble”.

Turning to “SDDREMDDGRWKASALRVPLQVSSAVIKQEVVTRLAPDPVPLTEGAIGIFLSGTEPESGQEDSGYKVIDNRKYVYSEGHWGPPTANDTIYLVGNDADVCAYYPYKDSYTDKTVIPLQSQDYVETEDIYYALNTMINGFTPAITFDMVHAYSLVELKISRENYFMPCEISKITLKNSNLIKKGTINIAVDGSIHSSETGNYDLTTVTDASPHTLSVGESYVCRVLMIPVPLKIERTDAEGGEFGLSVSLVIDGQQMLVEIPYSELGEFRQGEKYVIGLKIKGTEIVPTVKALEWEDEEVNGGNKYPVE”, the “soluble on expression in E. coli” value is “soluble”.

Consider “GMTISRNYDQEIKDTAGHKYAYNFDFDVMHPFMVRAFTPFFRPGNLLELGSFKGDFTSRLQEHFNDITCVEASEEAISHAQGRLKDGITYIHSRFEDAQLPRRYDNIVLTHVLEHIDDPVALLKRINDDWLAEGGRLFLVCPNANAVSRQIAVKMGIISHNSAVTEAEFAHGHRCTYALDTLERDASRAGLQVTYRSGIFFKALANFQWDQILQTDILSKEYLDGCYQLGQQYPDLCASIFLLCEKGINQ”, for which the “soluble on expression in E. coli” value is “soluble”.

For the sequence “MAHHHHHHMEAPTDNDSMQAGPVVVGHADGVLTMPSEDFASLHLQPIQDDTWIRNAEIVHMENFVETEDGKRIKREILKEYVEEKERQGTFHPDPILEGMIYQEKFMEAYRTNGRSVDADKAHSYRLKLLETHRRARAIENADT”, the “soluble on expression in E. coli” value was “not soluble”.

In the case of “MAHHHHHHMSGEKKEALKNDLPPIPGCDTDGQTYKSAEEMWAAELRGNLYDAETGWYGRSLQYWSKVPATVSGVLGGMEHIHDVDLKESRAFITSIPDRGTSRALDCGAGIGRVTKYLLSTLYTVTDLLEPVANMLEKAKEELKGYPVGEFFLSSMETVNLKPNTYDLIVIQWTAIYLTDDDFVKFLAHCKTALTLRGYIFFKENCSCDERFVVDKEDSSLTRSDAHYKRIFAAAGVEVVKETMQKEWPDDLFKVKMYALR”, the “soluble on expression in E. coli” value is recorded as “soluble”.

Take “AAQAEREELAAGRMPGGGPQGAPAAAGGGGVSHRAGSRDCLPPAACFRRRRLARRPGYMRSSTGPGIGFLSPAVGTLFRFPGGVSGEESHHSESRARQCGLDSRGLLVRSPVSKSAAAPTVTSVRGTSAHFGIQLRGGTRLPDRLSWPCGPGSAGWQQEFAAMDSSETLDASWEAACSDGARRVRAAGSLPSAELSSNSCSPGCGPEVPPTPPGSHSAFTSSFSFIRLSLGSAGERGEAEGCPPSREAESHCQSPQEMGAKAASLDGPHEDPRCLSQPFSLLATRVSADLAQAARNSSRPERDMHSLPDMDPGSSSSLDPSLAGCGGDGSSGSGDAHSWDTLLRKWEPVLRDCLLRNRRQMEVISLRLKLQKLQEDAVENDDYDKAETLQQRLEDLEQEKISLHFQLPSRQPALSSFLGHLAAQVQAALRRGATQQASGDDTHTPLRMEPRLLEPTAQDSLHVSITRRDWLLQEKQQLQKEIEALQARMFVLEAKDQQLRREIEEQEQQLQWQGCDLTPLVGQLSLGQLQEVSKALQDTLASAGQIPFHAEPPETIRSLQERIKSLNLSLKEITTKVCMSEKFCSTLRKKVNDIETQLPALLEAKMHAISGNHFWTAKDLTEEIRSLTSEREGLEGLLSKLLVLSSRNVKKLGSVKEDYNRLRREVEHQETAYETSVKENTMKYMETLKNKLCSCKCPLLGKVWEADLEACRLLIQSLQLQEARGSLSVEDERQMDDLEGAAPPIPPRLHSEDKRKTPLKESYILSAELGEKCEDIGKKLLYLEDQLHTAIHSHDEDLIQSLRRELQMVKETLQAMILQLQPAKEAGEREAAASCMTAGVHEAQA”: the “soluble on expression in E. coli” value is “soluble”.

Consider “MNKEAFERLPQEKKKIIETAYFSAVRKEISASQFFGVCKEALSKDQFESLFSSSTAGREQQEEMKTEHLQDIIQYSGVDLKEEAEHIVRETETNINFGEYEEEDVNNHIGSLMNVPLFREFVSRIGNSRRVGISEESFFLLFQVAKRKMLDIVEKMEESSKWRVEYNLSEFIIRIKNDLSRQLWCLEQIEKAEIEKFTIRRGEEEGRKKVKKTIQEREDLVIKKRLSNTVALAALGIQQKSWMSAEDVRVSEESTAFNSIYSPFDEKALERKVVNRTITMKDFLYVLERDRRYSKSVFTIQHYFRRGSA”, for which the “soluble on expression in E. coli” value was “not soluble”.

As to “ADERLQFTATTLSGAPFDGASLQGKPAVLWFWTPWCPFCNAEAPSLSQVAAANPAVTFVGIATRADVGAMQSFVSKYNLNFTNLNDADGVIWARYNVPWQPAFVFYRADGTSTFVNNPTAAMSQDELSGRVAALTS”, the “soluble on expression in E. coli” value is listed as “soluble”.

Regarding “MGSDKIHHHHHHMTDVHASTQALKPARLLADSPSRFPGESAEYRRARNDLLVEEIELRRHIERVAAQRRALPAGGVVPEDYRFMGEAGPVALSEMFGAHDTLVTYNWMFGPQRVRPCPMCTSLLSAYDGEMPDILQRVAFAVIARAPIERLVAFGKERGWRHLRLYSSGGNSFNRDYAAEDPAGDDHPAFNVFTRSGGTVRHFWAEEMGPSTADPGQDPRGAPDVMPIWTVLDMTPGGRGTDWYPKLEYDTAPG”, the “soluble on expression in E. coli” value is “not soluble”.

Take “DHDFKYEVSANLSTVRNRVTSLGFGTDSYISGAYITNVGEEIGKFYGWVYDGIARTQADLDNHATQEGAQIGDCLYKDVSGPDGKPDGKVDANDQVVLGSGMPKINFGLNARFEYKRFDLSIATFGALNYHVSDDIHNSLNSCYGWGNKDVAMLDANRFSEDGSTYLSSVPRTYVTNSASLAWNDLFSDRKIQNAAYWKIANIELGYNFPNEWFGKYVSDVRFYVSAQNLHTFTGYKGYNVDYAGGTFTPGYNFCSYPTARTFMCGVHFTF”: the “soluble on expression in E. coli” value is on record as “not soluble”.

For “MNPNPNVKYPIEGNQNVHFIKNTITKANILVGDYSYYDAKDGETFEDRVLHHYEFLGDRLIIGKFCCIASGVTFIMNGANHRMDGFSAYPFNIFGNGWEKYTPNLSDLPYKGDTVIGNDVWIGMDATIMPGIKIGDGAIIAAKSVVTRDVAPYTIVGGNPANKIRERFSNAIIEELLQIQWWHFDIEKITENIGAIVQGNIEPLRKLKRE”, the “soluble on expression in E. coli” value was “not soluble”.

Consider “MLRTFRIGGIHPPENKLSAGKPVEVLPIPSQVVIPLGQHIGAPATATVKKGDEVKVGTIIAQAGGFVSANIHSSVSGKVLKIDNVYDSSGYPKPAVFISVEGDEWEEGIDRSPAIVKECNLDAKEIVAKISAAGIVGLGGATFPTHVKLSPPPGNKAEILIINAVECEPYLTSDHVLMLEHGEEIMIGVSILMKAIQVNKAVIGVENNKKDAIAHLTKLATAYPGIEVMPLKVQYPQGGEKQLIDAVIRKQVKSGALPISTGAVVQNVGTVFAVYEAVQKNKPLVERIVTVTGKKLSRPSNLLVRIGTPIAALIEAAGGLPENTGKIIGGGPMMGRALLSPDVPVTKGSSGVLILDREEAVRKPMRDCIRCAKCVGVCPMGLNPAFLMRDTLYKSWETAEKGNVVDCIECGSCSFTCPANRPLLDYIRQAKKTVMGIQRARKQLEHHHHHH”, for which the “soluble on expression in E. coli” value was “not soluble”.

Consider “MVAAPPAVGAAMPSLDFDTSVFNKEKVSLAGHEEYIVRGGRNLFPLLPEAFKGIKQIGVIGWGSQGPAQAQNLRDSLAEAKSDIVVKIGLRKGSKSFDEARAAGFTEESGTLGDIWETVSGSDLVLLLISDAAQADNYEKIFSHMKPNSILGLSHGFLLGHLQSAGLDFPKNISVIAVCPKGMGPSVRRLYVQGKEINGAGINSSFAVHQDVDGRATDVALGWSVALGSPFTFATTLEQEYKSDIFGERGILLGAVHGIVEALFRRYTEQGMDEEMAYKNTVEGITGIISKTISKKGMLEVYNSLTEEGKKEFNKAYSASFYPCMDILYECYEDVASGSEIRSVVLAGRRFYEKEGLPAFPMGNIDQTRMWKVGEKVRSTRPENDLGPLHPFTAGVYVALMMAQIEVLRKKGHSYSEIINESVIESVDSLNPFMHARGVAFMVDNCSTTARLGSRKWAPRFDYILTQQAFVTVDKDAPINQDLISNFMSDPVHGAIEVCAELRPTVDISVPANADFVRPELRQSS”, for which the “soluble on expression in E. coli” value is listed as “soluble”.

In the case of “MSLAELDLTGGMDEARGDIADLLGKEERKILTTGNAEIDKKIADGLPLGSLTLIEGENDTGKSVLTQQFIWGSMHNNLRVDLFSTELTTKSFLTQMESMSLDISDFFAWGYIRLFHCHLVEFKWTPDAMNDILERIITHVKFSNTDVAIIDSLTIFTEYTTNEAVLTFLTQAKNICDQGKTILITMHSYAFTDEVLTRVRSICDAHLLLMRKLMGDKYVMVLEVVKVRGARKTTGNLVSFEVHPGYGMKIIPVSVAKVEGHHHHHH”, the “soluble on expression in E. coli” value is “soluble”.

Turning to “MAVSKNVTVIPARKHTRKSKDEEKPKLRVAAYCRVSTDSEEQATSYDTQIEHYTAYIQGHPDWMLAGIFADDGISGTNTKKREEFNRMIDECMAGNIDMIITKSISRFARNTLDCLKYIRQLKDKNIPVYFEKENINTMDSKGEVMLTIMASLAQQESQSLSQNVKLGLQYRYQQGEIQVNCARFLGYTKDENKRLVVVPEEAEIVKRIYREYLEGASMLKIARGLEADGILNGAGNERWHTSNINNILRNEKYIGDALLQKTYTVDFLTKKRVKNNGIVPQYYVENSHEAIIPREVFMQVQEELIRRRIVHTSPNGKTRTFSSNHVFAQIIICGKCGEVFRRVHWNNRGKKSIVWRCVSRLENTGLFCDARTVLESTIEQVLVTAINQTLCDKDSFLTTLRDNIATIINRESDKALADIDKRLEELQTELLKLATSNADYEKVGDEIHSLRDQKQKLQVENANRDELKKQIADMSTFLKKQSTALAEYDKQLVRRLIDKVTVFEDKFTVEFKSGVTVDVDE”, the “soluble on expression in E. coli” value was “soluble”.

For “DEAMLKIEQQEVVKNLPVGSKLVQLKYAGHSTDEPLLNQIYKEFEVTANILYGNIEILDGIPVGEMVVILSGDEEKLRQACQAITDSQVQLTLLKEGG”, the “soluble on expression in E. coli” value is recorded as “not soluble”.

As to “MRDERLSKIISMFQAHIRGYLIRKAYKKLQDQRIGLSVIQRNIRKWLVLRNWQWWKLYSKVKPLL”, the “soluble on expression in E. coli” value is given as “soluble”.

For “MIKLRMPAGGERYIDGKSVYKLYLMIKQHMNGKYDVIKYNWCMRVSDAAYQKRRDKYFFQKLSEKYKLKELALIFISNLVANQDAWIGDISDADALVFYREYIGRLKQIKFKFEEDIRNIYYFSKKVEVSAFKEIFEYNPKVQSSYIFKLLQSNIISFETFILLDSFLNIIDKHDEQTDNLVWNNYSIKLKAYRKILNIDSQKAKNVFIETVKSCKY”, the “soluble on expression in E. coli” value is “soluble”.

The values are drawn from the DeepSol protein solubility set.
